# Patent US20200147199A1
# Changes are numbered by the printed parent chain.
# B1: Z004 (MEX18_89) (antibody, V domains shown)
# VH: EVQLLESGGGLVQPGGSLRLTCATSGFTFRDYAMSWVRQAPGKGLEWVSSYSGIDDSTYYADSVKGRFTISRDNSKSTLSLHMNSLRAEDSALYFCAKDRGPRGVGELFDSWGQGTLVTVSS
# VL: DIQMTQSPSTLSASVGDRVTITCRASQSISKWLAWYQQKPGKAPKLLIYTTSTLKSGVPSRFSGSGSGTEFTLTISSLQPDDFATYYCQHFYSVPWTFGQGTKVEIK
# B2: Z013 (MEX18_84) (antibody, V domains shown)
# VH: EVQLLESGGGLVQPGGSLRLSCAASGFTFTSYAMNWVRQAPGKGLEWVSGIGGRGAIAGDGSIYYADSVKGRFTISRDNSKNIVYLQMNGLRVEDTAVYYCAKDRVAFDGFHVWGQGTLVTVSS
# VL: DIQMTQSPPTLSASVGDRVTITCRASQSISSWLAWYQQKPGKAPKLLIYKASSLESGVPSRFSGSGSGTEFSLTISSLQPEDFATYYCQQYNSYPWTFGQGTKVEIK
# B3: Z050 (BRA138_28) (antibody, V domains shown)
# VH: QVQLVQSGAEVKKPGSSVKVSCKAPGGTFSRYSIAWVRQAPGQGLEWMGGINPTFTTPNYAQKFQGRVTITADESTNTAYLDLSSLRSEDTAVYYCARFRYYYESGGYSDASPYYLDYWGQGTLVTVSS
# VL: EIVLTQSPATLSLSPGERVTLSCRASQSVSSYLAWYQQKPGQAPRLLIYDASNRATGIPARFTGSGSGTDFTLTISSLEPEDFAVYYCQQRSNWPLTFGGGTKVEIK
# B4: Z057 (MEX84_p4-54) (antibody, V domains shown)
# VH: EVQLVQSGAEVKRPGASVKVSCKASGYTFADYYIHWVRQAPGLGLEWMGWINPKTGFSHYEQTFQGRVTMARDTSIPAAYMELSSLKSDDTAIYYCARGGRINVAEALRYWGQGSLVTVSS
# VL: DIQMTQSPSTLSTFVGDRVTITCRASQTIGDWLAWYQQKPGKAPKLLISKATRLESGVPSRFSGSGSETEFSLTINSLQPDDVAAYYCQQYMSYPWTFGQGTKLEIK
# B5: Z062 (BRA112_70) (antibody, V domains shown)
# VH: EVQLVESGGGVVQPGRSLRLSCAASGFSFSSHAMYWVRQAPGKGLEWVAIVSYDGSTKNYADSVKGRFTISRDNSKNTIYLHLNSLRAEDTAVYFCAREVDGIYGYLHYWGQGTLVTVSS
# VL: EIVLTQSPATLSLSPGERATLSCRARQNVRNFLAWYQQKPGQAPRLLIYDASNRATDIPARFSGSGSGTDFTLTISSLEPEDFAVYYCQQRSYSITFGQGTRLEIK
# B6: Z053 (BRA138_65) (antibody, V domains shown)
# VH: QLQLQESGPGLVKPSETLSLTCTVSGGSISSYNYYWGWIRQPPGKGLEFIGSIYYTGSTYYNPSLRSRVTISVDTSKNQFSLKLTSVTAADTAVYYCARHGPGMGHNWYFDLWGRGTLVTVSS
# VL: EIVLTQSPATLSLSPGERATLSCRASQSISSYLAWYQQKPGQAPRLLIYDASNRAPGIPARFSGSGSGTDFTLTISSLEPEDFAVYYCQQRSTWLTFGGGTKVEIK
# B7: Z005 (MEX18_13) (antibody, V domains shown)
# VH: EVQLLESGGGLVQPGGSLRLSCAASGFTFSSYAMSWVRQAPGKGLEWVSSFSGIDDSTWYADSVKGRFTISRDNSKSTLYLQMNSLRAEDTAVYYCAKDRLVRGFAEVLDYWGRGTLVTVSS
# VL: DIQMTQSPSSLSASVGDRVTITCRASQDISKYLAWYQQRPGKVPNLLIYTASTLQSGVPSRFSGSGSGTHFTLTISSLQPEDVATYYCQKYNSVPWTFGQGTKVEIK
# B8: Z061 (BRA112_36) (antibody, V domains shown)
# VH: EVQLVESGGGVVQPGRSLRLSCAASGFTFSISTIHWVRQAPGKGLEYVVVISHDGNTKYYADSVKGRFIISRDNSKNTVFLQMNSLRPVDTAVYYCARGEVGYFDLWGRGTLVTVSS
# VL: EIVLTQSPATLSLSPGERATLSCRASQSVSSFLAWYQQKPGQPPRLLIYDASTRATGIPARFSGSGSGTDFTLTISSLEPEDFAVYYCQQRSNWPPITFGQGTRLEIK
# B9: Z059 (MEX84_p4-34) (antibody, V domains shown)
# VH: EVQLVQSGAEVKTPGSSVKVSCKTSGGTFSNFAITWVRQAPGQGLEWMGGIIPLFGITNYTQKFQGRVTITTDESKTTAYMDLSGLRSEDTAVYFCARGRDSSGRLLDHWGQGTLVTVSS
# VL: EIVMTQSPATLSVSPGERATLSCRASQTVNRNLAWYQQKPGQAPRLLIYAASARATGVPARFSGSGSGTEFTLTISSLQSEDFVVYYCQQYNNWPPLTFGGGTKLEIK
# B10: Z007 (MEX105_50) (antibody, V domains shown)
# VH: EVQLLESGGGLVRPGGSLRLSCTASGFTFRRYAMAWVRQAPGKGLEWVSLIYDGDDSTYYAKSVKGRFAISRDNSKNTLSLQMNSLRAEDTAVYYCVKDRDNGWSSIVDWGQGTLVTVSS
# VL: DIQMTQSPSTLSASVGDRVTITCRASHSISGWLAWYQQKPGKAPKLLIYQASILESGVPSRFSGSGSGTEFTLTIGSLQPEDFATYFCQQYSTFWTFGQGTKVEIK
# B11: Z009 (MEX105_64) (antibody, V domains shown)
# VH: B10 VH with D53N, K62E, A69T, I70V, K76Q, V93I, K98R
# VL: B10 VL with H27R, S28T, S30G, G31S, S56G, G66V, G76R
# B12: Z008 (MEX105_60) (antibody, V domains shown)
# VH: B10 VH with Y32F, Y52W, D53N, K62E, K65R, A69T, K76H, N84R, V93I
# VL: B10 VL with H27Q, S28T, S30G, G31N, I53V, G76S
# B13: Z052 (BRA138_62) (antibody, V domains shown)
# VH: QVQLQESGPGLVKPSQTLSLTCTVSGGSITGGVYYWNWIRHHPGKGLEWIGYMFYSGDTDYNPSLRSRVTISGDTSKNKFSLNLNSVTAADTAVYYCARAGFDYGSPVSAFDIWGQGTLVTVSS
# VL: EIVLTQSPATLSLSPGERATLSCRASQSVSSTYLVWYQQKPGQAPRLLIYGASSRATGIPDRFSGSGSGTDFTLTISRLEPEDFAVYFCQQYAHSPRGYTFGQGTKLEIK
# B14: Z055 (MEX84_p4-61) (antibody, V domains shown)
# VH: EVQLVQSGAEVKKPGASVKVSCKASGYTFSGYYIHWLRQAPGQGLEWMGWINSNSGGADSGPRFHGRVTMTRDTSINTAYLELTNLRSDDTAVYYCARRTYYDTRFPYWYFDLWGRGTLVTVSS
# VL: AIRMTQSPSSLSASVGDRVTITCRASQDIGSYLNWYQQKPGKAPNVLISAASTLQSGVPSRISGIGSGTDFTLTISSLQPEDFATYYCQQSLSAPYTFGQGTKLEIK
# B15: Z017 (MEX84_p2-58) (antibody, V domains shown)
# VH: QVQLVQSGAGMRKPGASVKVSCKASGYSFNDYYIHWVRQAPGQGLEWMGWINPKSGFTNYAQRFQGRVTMTGDTSNSVAYMELTRLTSDDTAVYYCARGGRINAPLGFDPWGQGTLVTVSS
# VL: EIVLTQSPDTLSLSPGETATLSCRASQSIGSISLGWYQQKFGQAPRLLIYGASTRATGTPDRFSGSGSETDFTLTISRLEPEDSAVYYCQQYVSSPLRFGGGTKVEIK
# B16: Z002 (MEX18_27) (antibody, V domains shown)
# VH: EVQLLESGGGLVQPGGSLRLSCATSGFTFSTYAMSWVRQAPGKGLEWVSSFSGVDDSTYYAESVKGRFTISRDNSKNTVYLQMTRLRAEDTAVYYCAKDRGPRGVGELFDSWGQGTLVTVSS
# VL: B1 VL with I21M, S30N, K31R, Y92H
# B17: Z003 (MEX18_58) (antibody, V domains shown)
# VH: EVQLLESGGGLVQPGGSLRLSCATSGFTFTTFAMSWVRQAPGKGLEWVSSISGADDSTYYAASVKGRFTISRDNSRSTLFLQMNSLRAEDTAVYYCAKDRGPRGVGELFDSWGQGTLVTVSS
# VL: B1 VL with K45R, Y92F
# B18: Z034 (BRA112_09) (antibody, V domains shown)
# VH: EVQLLESGGGLAQPGGSLRLSCETSGFTFRSYGMGWVRQAPGKGLEWVSSIYISGDSTYYAASVKGRFTISRDNSKSTLYLQMDRLTAEDTAVYYCVRDRIQGGFGELYRYWGQGTLVTVSS
# VL: DIQMTQSPSTLSASVGDRVTMTCRASQSVNKWLAWYQQKPGKAPKLLIYETSILESGVSSRFSGSGSGTEFTLTISSLQPDDFATYYCQHYHGYPWTFGQGTKVEIK
# B19: Z011 (MEX105_15) (antibody, V domains shown)
# VH: EVQLLESGGGLVQPGGSLRLSCAASGFTFRTYAMSWVRQPPGKGLEWVSSISAREDSTYFAASVRGRFTISRDNSKNTLYLQMNNLRAEDTALYYCAKDRLQLGVGELYESWGQGTLVTVSS
# VL: B2 VL with P9S, S28N, S30N, K50M, E55Q, S72T, I75V, E81D, Q90H, N92H
# B20: Z036 (BRA112_91) (antibody, V domains shown)
# VH: EVQLLESGGDLVQPGGSLRLSCAASGFTFSTYGMAWVRQAPGKGLEWLSSISSVDDSKYYAASVKGRFTISRDNSRNTLYLHMNSLRVDDTAVYYCAKDRIPHGLGELYANWGQGTLVTVSS
# VL: DIQMTQSPSTLSASVGDRVTITCRASQSISGWLAWYQQKPGKAPRLLMHKASNLYSGVPSRFSGSGSGTEFTLTISSLQPDDFATYYCQHYHSYPYTFGQGTKVEIK
# B21: Z056 (MEX84_p2-94) (antibody, V domains shown)
# VH: EVQLVQSGAEVKKPGASVKVSCKASGNTFMGYYFHWVRQAPGQGLEWMGWINPNSGHANIAQTFQGRVTMTRDPSITTAYMELSRLRSDDTAVFYCARGGMLGQLWALDNWGQGTLVTVSS
# VL: DIQMTQSPSTLSASVGDRVTITCRASQSISHWLAWYQQRPGEAPKLLIYQASTLESGVPSRFSGSGSGTEFTLSISSLQPDDFATYYCQQYQSSPYTFGQGTKLEIK
# B22: Z051 (BRA138_59) (antibody, V domains shown)
# VH: QVQLQESGPGLVKPSQTLSLTCTVSGVSISSGGYYYSWFRQLPGKGLEWIGHIYYTGNTHYNPSLRSRLTISVDTSKNQFSLKLSSVTAADTARYYCARAWCEYAAYCWFDPWGRGTLVTVSS
# VL: EIVLTQSPGTLSLSPGERATLSCRASQSVTSSYLAWYQHKPGQAPRLLIYGASSRAPGIPDRFSGSGSGTDFTLTISRLEPEDFAVYWCQQYGRSPFTFGQGTKLEIK
# B23: Z016 (MEX84_p2-55) (antibody, V domains shown)
# VH: QVQLVQSGAEVKKPGASVKLSCKASGYTFTSYYVHWVRQAPGQGLEWMGIINPGNNFVSFAQNFYDRATMTRDTSTNTVYMELTNLQSEDTAVYYCARTLVAPSAQSMYYFDFWGQGTLVTVSS
# VL: EIVLTQSPGTLSLSPGERGTLSCRASQYITTGHFAWYQQKPGRAPRLLIYGASVRATGVPDRFSGSGAETDFTLTISRLDPEDVGVYYCQQYGSSPVTFGPGTKVDIK
# Target: T1, ZIKV E Domain III ([..]), polyhistidine-AviTag, produced in HEK-293-6E cells (ZIKV)
# Assay: ELISA, biotinylated Z004 on coated ZEDIII, streptavidin-HRP
# Conditions: remark: other sources report otherwise
row,Binder,EC50 [µg/mL]
1,B1,0.16

# Target: T1, ZIKV E Domain III ([..]), …
# Assay: ELISA on coated ZIKV EDIII
# Conditions: remark: other sources report otherwise
row,Binder,EC50 [µg/mL]
1,B2,> 10
2,B3,0.0303
3,B4,0.0828
4,B5,0.208
5,B6,1.68
6,B7,0.216
7,B8,0.311
8,B9,0.61
9,B10,0.0346
10,B11,0.0284
11,B12,0.0326
12,B13,0.0131
13,B14,1.88
14,B15,> 10
15,B16,0.0252
16,B17,0.0255
17,B18,0.0235
18,B19,0.038
19,B20,0.0172
20,B21,0.982
21,B22,1.86
22,B23,0.0724
